Source: US20250002570A1 (Innovent, published 2025)
Numbering of substitutions follows the chain as printed.

B1: LA63G12 anti-VEGF C VHH antibody (VHH)
VHH: QLQLVESGGGLVQPGGSLRLSCAASGSSFSPYAMGWYRQAPGKQRELVAATTSGGSTLYADSVKGRFTISRDNAKNTVYLQMNSLKPEDTAVYYCYMHWRGSDPENYWGQGTQVTVSS
notes: The prokaryotic product was purified on Ni Sepharose
B2: LA49G9 anti-VEGF C VHH antibody (VHH)
VHH: B1 VHH with S28M, P31M, K75E, M97T, H98Y, Q110R
notes: as for B1
B3: LA49G9.2 humanized anti-VEGF C VHH-Fc antibody (Fc fusion)
chain: B1 VHH with Q1E, L2V, S28M, P31M, A74S, V78L, K86R, P87A, M97T, H98Y
notes: not shown: Fc part (and any hinge or linker) of the dimerized VHH-Fc antibody
B4: LA63G12.1 humanized anti-VEGF C VHH-Fc antibody (Fc fusion)
chain: B1 VHH with Q1E, L2V, A49S, A74S, K86R, P87A
notes: as for B3
B5: am63G12-14B11 affinity-matured humanized anti-VEGF C VHH antibody (VHH)
VHH: B1 VHH with Q1E, L2V, A49S, T52S, S53E, S56F, A74S, K86R, P87A
notes: also called am63G12.1-14B11
B6: am63G12-5G8-18B9 affinity-matured humanized anti-VEGF C VHH antibody (VHH)
VHH: EVQLVESGGGLVQPGGSLRLSCAASGSSFSPYAMGWYRQAPGKQRELVSATSSGGFTLYADSVKGRFTISRDNSKNTVYLQMNSLRAEDTAVYYCYTYYREYDPEMYWGQGTQVTVSS
notes: also called Am63G2-5G8-18B9; am63G12.1-5G8-18B9

What follows are molecules tested against T1, human VEGF C (human, UniProt P49767 103-227, limits assumed) (assay: BLI (ForteBio), bivalent binding, 30 C).
T1 construct: also called hVEGFC; hVEGF C
T1 sequence (looked up): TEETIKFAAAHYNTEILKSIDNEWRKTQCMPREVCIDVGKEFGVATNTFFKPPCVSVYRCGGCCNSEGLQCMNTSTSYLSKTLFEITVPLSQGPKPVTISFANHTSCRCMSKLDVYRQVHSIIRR
Procedure: (§1) The equilibrium dissociation constant (KD) for binding of the antibodies of the present invention to human VEGF C was determined by bio-layer interferometry (ForteBio). A ForteBio affinity assay of prior art was performed (Estep. P., et al., “High throughput solution Based measurement of antibody-antigen affinity and epitope binning”, MAbs, 2013.5(2): 270-8).
(§2) 100 μL of SD buffer, antibodies, and antigens (human VEGF C, Beijing Sino Biological) were added to a 96-well black polystyrene half-area microplate (Greiner, 675076). The sensors were arranged according to the positions of the samples. The instrument settings were as follows: the operation procedures were Baseline, Loading −1 nm, Baseline, Association, and Dissociation; the run time of each procedure was dependent on the rates of association and dissociation; the rotation speed was 400 rpm, and the temperature was 30° C. The KD values were analyzed by ForteBio analysis software.
With B1 the Kd was 0.656 nM and the kon was 305000 M⁻¹ s⁻¹.
Work on B2 yielded a Kd of 0.613 nM and a kon of 326000 M⁻¹ s⁻¹.
In the case of B3, the Kd is reported as ≤ 0.645 nM and the kon is reported as 310000 M⁻¹ s⁻¹.
With B4 the Kd was ≤ 0.622 nM and the kon was 322000 M⁻¹ s⁻¹.

Each molecule was assayed against T1, human VEGF C (assay: BLI (ForteBio), monovalent binding, 30 C).
Procedure: as §1, §2
Work on B1 yielded a Kd of 16.4 nM, a koff of 0.000761 s⁻¹ and a kon of 46500 M⁻¹ s⁻¹.
B2 was tested, and the Kd was 10 nM, the koff was 0.000544 s⁻¹ and the kon was 54300 M⁻¹ s⁻¹.
In the case of B5, the Kd is reported as 6.21 nM, the koff is reported as 0.000343 s⁻¹ and the kon is reported as 55300 M⁻¹ s⁻¹.
B6 showed a Kd of 5.7 nM, a koff of 0.00036 s⁻¹ and a kon of 63100 M⁻¹ s⁻¹.

What follows are molecules tested against T1, human VEGF C (assay: BLI (ForteBio), bivalent binding, 30 C; * beyond the ForteBio detection limit).
Procedure: as §1, §2
In the case of B1, the koff is reported as ≤ 0.0002 s⁻¹.
B3 was tested, and the koff was ≤ 0.0002 s⁻¹.
In the case of B4, the koff is reported as ≤ 0.0002 s⁻¹.

The molecules below were run against T1, human VEGF C (assay: BLI (ForteBio), bivalent binding, 30 C; * beyond the ForteBio detection limit; bivalent binding, ForteBio; kdis at the detection limit).
Procedure: as §1, §2
In the case of B2, the koff is reported as ≤ 0.0002 s⁻¹.

The molecules below were run against T1, human VEGF C (assay: ELISA blocking: VEGFC-biotin captured on streptavidin plate; blocked receptor VEGFR2-Fc (0.2 ug/mL), detected with anti-human Fc-HRP, OD450).
Procedure: The blocking effects of the antibodies of the present invention on the binding of hVEGFC to a receptor KDR were determined.
(§3) SA (streptavidin) was diluted to 1 μg/mL, and 100 μL/well of SA was plated in a microplate at 4° C. overnight. The plate was washed 3 times with PBST and blocked with 3% BSA for 1.5 h. The plate was washed 3 times with PBST, 50 ng/ml of VEGFC-biotin (biotin-labeled human VEGF C) was added, and the plate was incubated for 1.5 h. 50 μL of antibody was incubated with VEGFR2-Fc (with a final concentration of 0.2 μg/mL, Beijing Sino Biological) or VEGFR3-Fc (with a final concentration of 0.2 μg/mL, Beijing Sino Biological) for 20 min in advance, and the mixture was added to the plate. The plate was washed 3 times with PBST, an anti-human FcHRP antibody (diluted in a ratio of 1:10000, BETHYL) was added, and then the plate was incubated for 30 min. The plate was washed 6 times with PBST, the color development was performed with TMB (SOLARBIO) for 5 min, and OD450 nm was read after stopping.
OPT-302-His showed an IC50 of 0.0118 µg/mL.
In the case of B1, the IC50 is reported as 0.159 µg/mL.
With B2 the IC50 was 0.236 µg/mL.

The molecules below were run against T1, human VEGF C (assay: ELISA blocking: VEGFC-biotin captured on streptavidin plate; blocked receptor VEGFR3-Fc (0.2 ug/mL), detected with anti-human Fc-HRP, OD450).
Procedure: as §3
For B1, the IC50 was 0.371 µg/mL.
B2 gave an IC50 of 0.352 µg/mL.

Target: T1, human VEGF C
Test: as above
Remark: another data set of the same source
Procedure: as §3
For B1, the IC50 was 0.342 µg/mL.
With B2 the IC50 was 0.151 µg/mL.
Work on B4 yielded an IC50 of 0.492 µg/mL.
B5 showed an IC50 of 0.0191 µg/mL.

Target: T1, human VEGF C
Test: as above
Remark: another data set of the same source
Procedure: as §3
In the case of B1, the IC50 is reported as 0.125 µg/mL.
Molecule B2 has an IC50 of 0.0815 µg/mL.
Work on B4 yielded an IC50 of 0.182 µg/mL.
With B6 the IC50 was 0.0215 µg/mL.
